Source: publication PMC8152475 (Biomedicines, 2021)

Experiments:
[1] = test system: apoptosis and inflammation; conditions: ref [10],[11]; cited from earlier work
HK2 = type: binding
[2] = test system: murine macrophages and patients with TB; conditions: ref [10],[11]; cited from earlier work
TBK1 = target: T1, TBK1 (Homo sapiens, UniProt Q9UHD2); type: binding
T1 sequence (Q9UHD2 1-729): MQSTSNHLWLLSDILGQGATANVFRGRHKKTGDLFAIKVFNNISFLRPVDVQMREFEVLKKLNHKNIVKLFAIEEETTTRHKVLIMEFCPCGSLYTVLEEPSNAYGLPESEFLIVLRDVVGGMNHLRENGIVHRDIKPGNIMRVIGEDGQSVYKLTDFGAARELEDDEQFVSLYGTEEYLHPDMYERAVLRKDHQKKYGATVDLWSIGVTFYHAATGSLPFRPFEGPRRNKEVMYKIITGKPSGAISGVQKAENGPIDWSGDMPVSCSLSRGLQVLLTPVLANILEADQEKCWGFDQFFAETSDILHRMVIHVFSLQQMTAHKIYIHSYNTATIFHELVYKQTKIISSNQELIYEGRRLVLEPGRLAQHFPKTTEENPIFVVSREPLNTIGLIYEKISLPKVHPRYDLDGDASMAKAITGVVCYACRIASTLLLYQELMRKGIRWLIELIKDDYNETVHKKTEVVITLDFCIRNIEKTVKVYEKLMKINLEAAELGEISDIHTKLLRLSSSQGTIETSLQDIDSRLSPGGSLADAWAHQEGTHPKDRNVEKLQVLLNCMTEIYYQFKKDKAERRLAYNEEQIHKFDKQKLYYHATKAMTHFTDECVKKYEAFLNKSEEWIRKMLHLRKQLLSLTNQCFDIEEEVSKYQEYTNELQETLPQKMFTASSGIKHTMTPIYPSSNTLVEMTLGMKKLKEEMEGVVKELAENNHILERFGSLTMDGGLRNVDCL

[3] = test system: Caspase 3, FasL, Fas, and Bax in epithelioid cells and multinucleated giant cells; conditions: ref [45]; cited from earlier work

B1: MPT64: secretory immunodominant antigen of MTB, located in the RD2 region (protein)
chain: APKTYCEELKGTDTGQACQIQMSDPAYNINISLPSYYPDQKSLENYIAQTRDKFLSAATSSTPREAPYELNITSATYQSAIPPRGTQAVVLKVYQNAGGTHPTTTYKAFDWDQAYRKPITYDTLWQADTDPLPVVFPIVQGELSKQTGQQVSIAPNAGLDPVNYQNFAVTNDGVIFFFNPGELLPEAAGPTQVLVPRSAIDSMLA
[1]
  apoptosis, TGF-β expression and inflammation: reduced apoptosis by increasing the expression of TGF-β and reducing inflammation
HK2
  domain of HK2 required for binding: HK2 domain in HK2 were found to be essential for their interaction with MPT64
  region of MPT64 binding HK2: The C-terminal of MPT64 was associated with HK2 and its essential peptides were located between 187–193
[2]
  production of IFN-γ: induced the production of IFN-γ in murine macrophages and patients with TB
TBK1
  region of MPT protein binding TBK1: The N-terminal domain of MPT64 interacted with TBK1, and the core peptide sequences for binding were 24–28 and 34–38 peptides
[3]
  relation to expression of apoptotic factors: related to the expression of apoptotic factors, such as Caspase 3, FasL, Fas, and Bax
